Test results from CN113234158A (FUZHOU MAIXIN BIOTECHNOLOGY DEV CO LTD, dated 2021).

Molecular target: T1, TIM3蛋白 (T细胞免疫球蛋白黏液素3) (human, UniProt Q8TDQ0 22-301)
T1 construct: whole, on cells; Endogenous TIM3 in paraffin tissue sections (immunohistochemistry); Species 'human' comes from the abstract; also called T cell immunoglobulin and mucin-3
T1 sequence (looked up): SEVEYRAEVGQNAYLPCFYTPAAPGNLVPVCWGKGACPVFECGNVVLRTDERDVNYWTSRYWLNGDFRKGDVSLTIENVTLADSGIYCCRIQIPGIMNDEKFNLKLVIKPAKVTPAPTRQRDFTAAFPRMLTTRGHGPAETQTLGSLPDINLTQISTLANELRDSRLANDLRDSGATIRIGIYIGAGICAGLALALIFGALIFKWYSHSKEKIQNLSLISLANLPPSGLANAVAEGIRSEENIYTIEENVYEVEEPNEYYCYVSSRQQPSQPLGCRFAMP
Experiment: immunohistochemistry on tonsil and appendix tissue chips

B1: 抗TIM3蛋白单克隆抗体 (小鼠杂交瘤细胞株7H2分泌, CGMCC NO 20763) (antibody, V domains shown)
VH: QVQLQESGGDLVKTGGSLKLSCVASGFTFRRYTMSWVRQTPAKRLEWVATIGSGGGDTYYPDTVKGRFTISRDNARSTLFLQMNSLRSEDTARYYCARSSYYYDVDLYYYSMDYWGQGTSVTVSS
VL: DILMTQTPLSLSASLGDRVTISCRASQDIRNCLNWYQQKPDGTVKLLIYYTSTLQSGVPSRFSGSGSGTDYSLTISNLEAEDIATYTCQQYSKIPRTFGGGTTLEIK
notes: also called TIM3(7H2); 本抗体
B1: binds.
